± gives the standard deviation of the averaged measurements.
Test: total protein half-life in vivo (active degradation + dilution); higher = more stable protein
[1] = E. coli NCM3722 delta-clpP delta-lon delta-hslV, growth: N-lim chemostat, doubling time 6 h
[2] = E. coli NCM3722 delta-clpP, growth: N-lim chemostat, doubling time 6 h
[3] = E. coli NCM3722 delta-hslV, growth: N-lim chemostat, doubling time 6 h
[4] = E. coli NCM3722 delta-lon, growth: N-lim chemostat, doubling time 6 h
[5] = E. coli NCM3722 delta-smpB, growth: N-lim chemostat, doubling time 6 h
[6] = wild type E. coli NCM3722, growth: C-lim chemostat, doubling time 3 h
[7] = wild type E. coli NCM3722, growth: C-lim chemostat, doubling time 6 h
[8] = wild type E. coli NCM3722, growth: C-lim chemostat, doubling time 12 h
[9] = wild type E. coli NCM3722, growth: N-lim chemostat, doubling time 6 h
[10] = wild type E. coli NCM3722, growth: N-lim chemostat, doubling time 12 h
[11] = wild type E. coli NCM3722, growth: P-lim chemostat, doubling time 6 h
[12] = wild type E. coli NCM3722, growth: P-lim chemostat, doubling time 12 h

Sequence	total protein half-life in vivo [1]	total protein half-life in vivo [2]	total protein half-life in vivo [3]	total protein half-life in vivo [4]	total protein half-life in vivo [5]	total protein half-life in vivo [6]	total protein half-life in vivo [7]	total protein half-life in vivo [8]	total protein half-life in vivo [9]	total protein half-life in vivo [10]	total protein half-life in vivo [11]	total protein half-life in vivo [12]
MNNNTTAPTYTLRGLQLIGWRDMQHALDYLFADGQLKQGTLVAINAEKMLTIEDNAEVRELINAAEFKYADGISVVRSVRKKYPQAQVSRVAGADLWEELMARAGKEGTPVFLVGGKPEVLAQTEAKLRNQWNVNIVGSQDGYFKPEQRQALFERIHASGAQIVTVAMGSPKQEIIMRDCRLVHPDALYMGVGGTYDVFTGHVKRAPKIWQTLGLEWLYRLLSQPSRIKRQLRLLRYLRWHYTGNL	6.19 ± 0.52 h	6.04 ± 0.25 h	6.18 ± 0.083 h	7.03 ± 0.76 h	6.88 ± 0.092 h	3.045 ± 0.02 h	5.84 ± 0.15 h	12.2 ± 1.7 h	6.58 ± 0.62 h	12.6 ± 0.13 h	5.76 ± 0.52 h	13.4 ± 1.2 h
MIQYLNVFFYDIYPYICATVFFLGSWLRYDYGQYTWRASSSQMLDKRGMVIWSNLFHIGILGIFFGHLFGMLTPHWMYAWFLPVAAKQLMAMVLGGICGVLTLIGGAGLLWRRLTNQRVRATSTTPDIIIMSILLIQCLLGLSTIPFSAQYPDGSEMMKLVGWAQSIVTFRGGSSEMLNGVAFVFRLHLVLGMTIFLLFPFTRLVHVWSAPFEYFTRRYQIVRSRR [P0AF32]	6.36 ± 0.3 h		7.27 ± 0.96 h	5.71 ± 0.33 h			6.54 h	11 h		10.7 ± 1.9 h		11.3 ± 1.8 h
MAEKRNIFLVGPMGAGKSTIGRQLAQQLNMEFYDSDQEIEKRTGADVGWVFDLEGEEGFRDREEKVINELTEKQGIVLATGGGSVKSRETRNRLSARGVVVYLETTIEKQLARTQRDKKRPLLHVETPPREVLEALANERNPLYEEIADVTIRTDDQSAKVVANQIIHMLESN [P0A6D7]	4.84 ± 0.069 h	3.45 ± 0.24 h	2.76 ± 0.24 h	4.2 ± 0.64 h	2.69 ± 0.079 h	2.24 ± 0.27 h	3.989 ± 0.026 h	5.31 ± 0.22 h	2.26 ± 0.05 h	3.61 ± 0.34 h	2.62 ± 0.12 h	4.5 ± 0.26 h
MAEHRGGSGNFAEDREKASDAGRKGGQHSGGNFKNDPQRASEAGKKGGQQSGGNKSGKS	0.599 h			1.5 h					1.49 h	1.92 ± 0.038 h		
MTNRISRLKTALFANTREISLERALLYTASHRQTEGEPVILRRAKATAYILEHVEISIRDEELIAGNRTVKPRAGIMSPEMDPYWLLKELDQFPTRPQDRFAISEEDKRIYREELFPYWEKRSMKDFINGQMTDEVKAATNTQIFSINQTDKGQGHIIIDYPRLLNHGLGELVAQMQQHCQQQPENHFYQAALLLLEASQKHILRYAELAETMAANCTDAQRREELLTIAEISRHNAQHKPQTFWQACQLFWYMNIILQYESNASSLSLGRFDQYMLPFYQTSLTQGEDAAFLKELLESLWVKCNDIVLLRSTSSARYFAGFPTGYTALLGGLTENGRSAVNVLSFLCLDAYQSVQLPQPNLGVRTNALIDTPFLMKTAETIRFGTGIPQIFNDEVVVPAFLNRGVSLEDARDYSVVGCVELSIPGRTYGLHDIAMFNLLKVMEICLHENEGNAALTYEGLLEQIRAKISHYITLMVEGSNICDIGHRDWAPVPLLSSFISDCLEKGRDITDGGARYNFSGVQGIGIANLSDSLHALKGMVFEQQRLSFDELLSVLKANFATPEGEKVRARLINRFEKYGNDIDEVDNISAELLRHYCKEVEKYQNPRGGYFTPGSYTVSAHVPLGSVVGATPDGRFAGEQLADGGLSPMLGQDAQGPTAVLKSVSKLDNTLLSNGTLLNVKFTPATLEGEAGLRKLADFLRAFTQLKLQHIQFNVVNADTLREAQQRPQDYAGLVVRVAGYSAFFVELSKEIQDDIIRRTAHQL	5.49 ± 0.94 h	3.15 ± 0.29 h										
MTWLPLNPIPLKDRVSMIFLQYGQIDVIDGAFVLIDKTGIRTHIPVGSVACIMLEPGTRVSHAAVRLAAQVGTLLVWVGEAGVRVYASGQPGGARSDKLLYQAKLALDEDLRLKVVRKMFELRFGEPAPARRSVEQLRGIEGSRVRATYALLAKQYGVTWNGRRYDPKDWEKGDTINQCISAATSCLYGVTEAAILAAGYAPAIGFVHTGKPLSFVYDIADIIKFDTVVPKAFEIARRNPGEPDREVRLACRDIFRSSKTLAKLIPLIEDVLAAGEIQPPAPPEDAQPVAIPLPVSLGDAGHRSS	4.85 ± 0.84 h				1.32 ± 0.25 h	3.48 h	3.62 ± 1.9 h	5.4 h	1.32 h		2.23 h	
MRSAQVYRWQIPMDAGVVLRDRRLKTRDGLYVCLREGEREGWGEISPLPGFSQETWEEAQSVLLAWVNNWLAGDCELPQMPSVAFGVSCALAELTDTLPQAANYRAAPLCNGDPDDLILKLADMPGEKVAKVKVGLYEAVRDGMVVNLLLEAIPDLHLRLDANRAWTPLKGQQFAKYVNPDYRDRIAFLEEPCKTRDDSRAFARETGIAIAWDESLREPDFAFVAEEGVRAVVIKPTLTGSLEKVREQVQAAHALGLTAVISSSIESSLGLTQLARIAAWLTPDTIPGLDTLDLMQAQQVRRWPGSTLPVVEVDALERLL			3.779 ± 0.0063 h	4.33 ± 0.7 h	3.7 ± 0.25 h	3.25 ± 0.19 h	5.71 ± 0.44 h	13.2 h	3.88 ± 0.14 h	6.68 ± 0.4 h	5.7 ± 0.073 h	11.5 ± 0.8 h
MGSDAKNLMSDGNVQIVKTGEVIGATQLTEGELIVEAGGRAENTVVTGAGWLKVATGGIAKCTQYGNNGTLSVSDGAIATDIVQSEGGAISLSTLATVNGRHPEGEFSVDKGYACGLLLENGGNLRVLEGHRAEKIILDQEGGLLVNGTTSAVVVDEGGELLVYPGGEASNCEINQGGVFMLAGKASDTLLAGGTMNNLGGEDSDTIVENGSIYRLGTDGLQLYSSGKTQNLSVNVGGRAEVHAGTLENAVIQGGTVILLSPTSADENFVVEEDRAPVELTGSVALLDGASMIIGYGAELQQSTITVQQGGVLILDGSTVKGDSVTFIVGNINLNGGKLWLITDAATHVQLKVKRLRGEGAICLQTSAKEISPDFINVKGEVTGDIHVEITDASRQTLCNALKLQPDEDGIGATLQPA	4.99 ± 0.55 h	4.73 ± 0.33 h	0.86 ± 0.11 h	1.12 ± 0.029 h	0.827 ± 0.0095 h	1.15 ± 0.029 h	1.56 ± 0.18 h	2.44 ± 0.65 h	1.07 ± 0.041 h	1.32 ± 0.13 h	1.73 ± 0.34 h	3.47 ± 1.2 h
